Experimental data from PMC10868842, “Structural basis of the recognition of adeno-associated virus by the neurological system-related receptor carbonic anhydrase IV” (PLOS Pathogens, 2024).

B1: Mus musculus carbonic anhydrase IV (Car4), amino acids W22 to S277 (receptor)
chain: WCYEIQTKDPRSSCLGPEKWPGACKENQQSPINIVTARTKVNPRLTPFILVGYDQKQQWPIKNNQHTVEMTLGGGACIIGGDLPARYEAVQLHLHWSNGNDNGSEHSIDGRHFAMEMHIVHKKLTSSKEDSKDKFAVLAFMIEVGDKVNKGFQPLVEALPSISKPHSTSTVRESSLQDMLPPSTKMYTYFRYNGSLTTPNCDETVIWTVYKQPIKIHKNQFLEFSKNLYYDEDQKLNMKDNVRPLQPLGKRQVFKS
notes: carbonic anhydrase IV (Car4), Mus musculus, residues 22-277 (W22 to S277); the functional rows use this molecule for Car4; also called wt Car4; truncated Car4 (22-277); not shown: GST, N-terminal, cleaved
B2: Car4 (22-277) T92A (receptor, Mus musculus, UniProt Q64444 22-277, looked up)
chain: WCYEIQTKDPRSSCLGPEKWPGACKENQQSPINIVTARTKVNPRLTPFILVGYDQKQQWPIKNNQHTVEMALGGGACIIGGDLPARYEAVQLHLHWSNGNDNGSEHSIDGRHFAMEMHIVHKKLTSSKEDSKDKFAVLAFMIEVGDKVNKGFQPLVEALPSISKPHSTSTVRESSLQDMLPPSTKMYTYFRYNGSLTTPNCDETVIWTVYKQPIKIHKNQFLEFSKNLYYDEDQKLNMKDNVRPLQPLGKRQVFKS
notes: carbonic anhydrase IV (Car4), Mus musculus, residues 22-277; also called T92A_(Car4); source: E. coli BL21 (DE3), purified as the wild type; not shown: GST, N-terminal, cleaved
B3: Car4 (22-277) Q79A (receptor, Mus musculus, UniProt Q64444 22-277, looked up)
chain: WCYEIQTKDPRSSCLGPEKWPGACKENQQSPINIVTARTKVNPRLTPFILVGYDQKQAWPIKNNQHTVEMTLGGGACIIGGDLPARYEAVQLHLHWSNGNDNGSEHSIDGRHFAMEMHIVHKKLTSSKEDSKDKFAVLAFMIEVGDKVNKGFQPLVEALPSISKPHSTSTVRESSLQDMLPPSTKMYTYFRYNGSLTTPNCDETVIWTVYKQPIKIHKNQFLEFSKNLYYDEDQKLNMKDNVRPLQPLGKRQVFKS
notes: carbonic anhydrase IV (Car4), Mus musculus, residues 22-277; also called Q79A_(Car4); source: E. coli BL21 (DE3), purified as the wild type; not shown: GST, N-terminal, cleaved
B4: Car4 (22-277) V72S (mouse residue changed to its hCar4 counterpart) (receptor, Mus musculus, UniProt Q64444 22-277, looked up)
chain: WCYEIQTKDPRSSCLGPEKWPGACKENQQSPINIVTARTKVNPRLTPFILSGYDQKQQWPIKNNQHTVEMTLGGGACIIGGDLPARYEAVQLHLHWSNGNDNGSEHSIDGRHFAMEMHIVHKKLTSSKEDSKDKFAVLAFMIEVGDKVNKGFQPLVEALPSISKPHSTSTVRESSLQDMLPPSTKMYTYFRYNGSLTTPNCDETVIWTVYKQPIKIHKNQFLEFSKNLYYDEDQKLNMKDNVRPLQPLGKRQVFKS
notes: carbonic anhydrase IV (Car4), Mus musculus, residues 22-277; also called V72S_(Car4); source: E. coli BL21 (DE3), purified as the wild type; not shown: GST, N-terminal, cleaved
B5: Car4 (22-277) I70A (receptor, Mus musculus, UniProt Q64444 22-277, looked up)
chain: WCYEIQTKDPRSSCLGPEKWPGACKENQQSPINIVTARTKVNPRLTPFALVGYDQKQQWPIKNNQHTVEMTLGGGACIIGGDLPARYEAVQLHLHWSNGNDNGSEHSIDGRHFAMEMHIVHKKLTSSKEDSKDKFAVLAFMIEVGDKVNKGFQPLVEALPSISKPHSTSTVRESSLQDMLPPSTKMYTYFRYNGSLTTPNCDETVIWTVYKQPIKIHKNQFLEFSKNLYYDEDQKLNMKDNVRPLQPLGKRQVFKS
notes: carbonic anhydrase IV (Car4), Mus musculus, residues 22-277; also called I70A_(Car4); source: E. coli BL21 (DE3), purified as the wild type; not shown: GST, N-terminal, cleaved
B6: Car4 (22-277) H187E (mouse residue changed to its hCar4 counterpart) (receptor, Mus musculus, UniProt Q64444 22-277, looked up)
chain: WCYEIQTKDPRSSCLGPEKWPGACKENQQSPINIVTARTKVNPRLTPFILVGYDQKQQWPIKNNQHTVEMTLGGGACIIGGDLPARYEAVQLHLHWSNGNDNGSEHSIDGRHFAMEMHIVHKKLTSSKEDSKDKFAVLAFMIEVGDKVNKGFQPLVEALPSISKPESTSTVRESSLQDMLPPSTKMYTYFRYNGSLTTPNCDETVIWTVYKQPIKIHKNQFLEFSKNLYYDEDQKLNMKDNVRPLQPLGKRQVFKS
notes: carbonic anhydrase IV (Car4), Mus musculus, residues 22-277; also called H187E_(Car4); source: E. coli BL21 (DE3), purified as the wild type; not shown: GST, N-terminal, cleaved
B7: Car4 (22-277) E90M (mouse residue changed to its hCar4 counterpart) (receptor, Mus musculus, UniProt Q64444 22-277, looked up)
chain: WCYEIQTKDPRSSCLGPEKWPGACKENQQSPINIVTARTKVNPRLTPFILVGYDQKQQWPIKNNQHTVMMTLGGGACIIGGDLPARYEAVQLHLHWSNGNDNGSEHSIDGRHFAMEMHIVHKKLTSSKEDSKDKFAVLAFMIEVGDKVNKGFQPLVEALPSISKPHSTSTVRESSLQDMLPPSTKMYTYFRYNGSLTTPNCDETVIWTVYKQPIKIHKNQFLEFSKNLYYDEDQKLNMKDNVRPLQPLGKRQVFKS
notes: carbonic anhydrase IV (Car4), Mus musculus, residues 22-277; also called E90M_(Car4); source: E. coli BL21 (DE3), purified as the wild type; not shown: GST, N-terminal, cleaved

Tests used:
[1] = target: T1, AAV9P31 capsid (adeno-associated virus 9 variant with the 7-mer WPTSYDA inserted in VP3 VR-VIII) (adeno-associated virus 9, UniProt Q6JC40 1-736, WPTSYDA inserted between Q588 and A589); assay: cryo-EM structure; AAV9P31 on the grid, Car4 (W22-S277) added and incubated for 5 minutes; icosahedral reconstruction and block-based reconstruction of the 3-fold axis blocks; settings: both partners purified
T1 construct: Assembled icosahedral virus particle carrying a GFP genome; capsids made from a RepCap plasmid usually hold VP1, VP2 and VP3 (surmise); also called AAV9P31 particles; AAV9P31 virion; source: HEK293T, triple-plasmid transfection, purified (iodixanol gradient ultracentrifugation)

[2] = target: T1, AAV9P31 capsid (adeno-associated virus …); assay: SPR; BIAcore 8K; AAV9P31 particles immobilised on a CM5 chip by amide coupling (sodium acetate pH 4.0); WT or mutated Car4 proteins flowed over at 30 ul/min, 25 °C, PBST; regeneration with 10 mM glycine pH 2.0; settings: both partners purified

| Binder | stoichiometry N [1] | Kd [2] |
| --- | --- | --- |
| B1 | ~3 Car4 per virion | 106 nM |
| B2 |  | 379 nM |
| B3 |  | 292 nM |
| B4 |  | 60.7 nM |
| B5 |  | 743 nM |
| B6 |  | 0.206 nM |
| B7 |  | 32.3 nM |
